Values of other authors in article PMC12405408.

Target: CaSR (Homo sapiens) (UniProt P41180)
UniProt P41180, sequence (P41180 20-1078): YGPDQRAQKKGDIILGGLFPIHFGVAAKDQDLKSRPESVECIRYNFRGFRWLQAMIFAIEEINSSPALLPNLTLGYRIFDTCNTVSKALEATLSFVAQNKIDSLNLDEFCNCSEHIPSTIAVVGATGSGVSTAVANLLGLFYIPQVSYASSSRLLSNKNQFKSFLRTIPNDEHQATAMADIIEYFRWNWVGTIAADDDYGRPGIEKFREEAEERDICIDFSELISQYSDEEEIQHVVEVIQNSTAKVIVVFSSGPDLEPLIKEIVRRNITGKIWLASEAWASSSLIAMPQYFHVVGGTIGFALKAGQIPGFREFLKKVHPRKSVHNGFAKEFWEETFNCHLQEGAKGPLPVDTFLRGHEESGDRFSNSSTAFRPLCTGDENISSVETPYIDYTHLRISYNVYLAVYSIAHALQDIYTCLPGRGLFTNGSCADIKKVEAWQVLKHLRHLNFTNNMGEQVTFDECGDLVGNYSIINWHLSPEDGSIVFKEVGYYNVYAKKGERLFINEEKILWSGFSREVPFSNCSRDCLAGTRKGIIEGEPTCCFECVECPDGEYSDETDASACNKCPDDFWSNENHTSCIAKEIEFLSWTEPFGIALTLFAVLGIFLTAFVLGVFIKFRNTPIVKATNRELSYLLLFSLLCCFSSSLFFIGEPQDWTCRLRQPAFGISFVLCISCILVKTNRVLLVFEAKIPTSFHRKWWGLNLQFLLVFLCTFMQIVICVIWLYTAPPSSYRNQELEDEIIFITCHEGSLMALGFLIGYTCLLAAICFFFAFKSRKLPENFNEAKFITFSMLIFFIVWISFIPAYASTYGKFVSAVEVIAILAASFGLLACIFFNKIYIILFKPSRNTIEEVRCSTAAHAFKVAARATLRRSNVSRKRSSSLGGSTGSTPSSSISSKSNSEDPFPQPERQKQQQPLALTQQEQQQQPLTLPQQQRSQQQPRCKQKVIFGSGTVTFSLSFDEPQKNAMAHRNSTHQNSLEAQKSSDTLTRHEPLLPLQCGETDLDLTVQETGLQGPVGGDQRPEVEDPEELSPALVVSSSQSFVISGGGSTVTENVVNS

## EWVPVTK peptide
  Kd: 3.2 nM
